From paper PMC4066776, “Molecular determinants of the DprA−RecA interaction for nucleation on ssDNA”

Target: T1, WT DprA (Streptococcus pneumoniae, UniProt Q8DPI7 1-282)
T1 sequence: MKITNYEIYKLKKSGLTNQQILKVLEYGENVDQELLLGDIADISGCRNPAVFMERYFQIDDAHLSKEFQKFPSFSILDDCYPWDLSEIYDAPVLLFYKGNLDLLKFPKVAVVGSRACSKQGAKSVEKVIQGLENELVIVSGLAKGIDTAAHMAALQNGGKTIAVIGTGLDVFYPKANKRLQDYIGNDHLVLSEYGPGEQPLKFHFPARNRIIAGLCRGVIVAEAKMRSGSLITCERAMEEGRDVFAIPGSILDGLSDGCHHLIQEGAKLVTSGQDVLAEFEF
Assay: fluorescence anisotropy; Pull-down: 200 mM NaCl, 20 mM Tris-HCl pH 7.5, 20 C, 30 min; anisotropy buffer not in the material
Conditions: protein: recombinant; chain copies: 2; label: fluorescein

B1: dT20 (ssDNA)
DNA: TTTTTTTTTTTTTTTTTTTT
  binding result: binds
